Test [1] concerns the target T1, human IL-4Rα on cells (human PBMC B cells and CD4+ T cells, Daudi cells, HEK-Blue IL-4/IL-13 cells, myeloid … (human, UniProt P24394 26-825)).
T1 sequence: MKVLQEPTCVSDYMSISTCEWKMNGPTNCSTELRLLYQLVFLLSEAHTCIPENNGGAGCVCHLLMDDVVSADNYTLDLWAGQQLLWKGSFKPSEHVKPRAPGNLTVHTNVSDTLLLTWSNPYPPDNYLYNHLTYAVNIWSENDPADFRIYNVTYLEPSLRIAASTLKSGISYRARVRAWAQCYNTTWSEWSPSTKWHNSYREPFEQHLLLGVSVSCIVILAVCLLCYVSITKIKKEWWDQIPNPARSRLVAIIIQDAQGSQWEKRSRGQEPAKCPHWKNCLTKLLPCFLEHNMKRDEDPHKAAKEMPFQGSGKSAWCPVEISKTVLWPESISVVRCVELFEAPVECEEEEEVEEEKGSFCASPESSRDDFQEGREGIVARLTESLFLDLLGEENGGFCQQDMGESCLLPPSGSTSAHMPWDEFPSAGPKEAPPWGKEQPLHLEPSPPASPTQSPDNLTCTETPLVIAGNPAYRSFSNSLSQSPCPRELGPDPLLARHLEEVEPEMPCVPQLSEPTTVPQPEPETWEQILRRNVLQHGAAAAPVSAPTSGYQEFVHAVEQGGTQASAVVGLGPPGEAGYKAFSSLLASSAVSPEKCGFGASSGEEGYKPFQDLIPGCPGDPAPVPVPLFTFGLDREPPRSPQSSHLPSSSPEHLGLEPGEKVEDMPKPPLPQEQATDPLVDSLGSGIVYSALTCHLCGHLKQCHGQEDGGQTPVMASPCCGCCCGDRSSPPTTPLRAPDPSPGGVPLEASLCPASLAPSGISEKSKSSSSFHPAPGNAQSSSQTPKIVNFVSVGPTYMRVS
Description: cell-based or functional assay.

Test [2] has as its target T2, hexahistidine-tagged human IL-4Rα extracellular domain (human, UniProt P24394 26-232).
T2 construct: In the MSD assay the plate coat is the His-tagged ECD; also called human IL-4Rα ECD; Wild type receptor; not shown: hexahistidine tag
T2 sequence: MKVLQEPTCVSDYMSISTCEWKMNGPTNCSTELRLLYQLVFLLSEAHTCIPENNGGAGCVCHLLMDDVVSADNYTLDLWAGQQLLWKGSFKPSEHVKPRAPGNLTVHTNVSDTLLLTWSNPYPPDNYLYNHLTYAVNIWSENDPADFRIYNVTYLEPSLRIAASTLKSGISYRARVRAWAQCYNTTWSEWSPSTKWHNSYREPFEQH
Briefly: competition MSD ELISA (solution equilibrium, 37 °C), apparent KD, mean of 3 experiments. The protocol: (§1) Example 3a. […] A 96-well multi-array plate (Meso Scale Diagnostics, Cat. #L15XA-3) was coated at 4° C. overnight with 0.5 μg/mL hexahistidine-tagged human or cynomolgus monkey IL-4Rα ECD in phosphate buffered saline (PBS). Following coating, plates were washed 10 times with 200 μL PBST (PBS with 0.05% Tween® 20) and blocked with 300 μL/well of PBS casein blocking buffer (Pierce, Cat. #37528) at 37° C. for 1 hour. Plates were then washed 10 times as above, and 50 μL of the preincubated antibody:IL-4Rα dilution series was transferred to the wells and incubated at 37° C. with 300 rpm shaking for […]. Plates were washed 10 times with PBST, 50 μL of 1 μg/mL anti-human antibody sulfo-tag 20 (Meso Scale Diagnostics, Cat. #R32AJ-1) was added to the plates for the assay of Table 7a, and anti-Human NHP Kappa Light chain SULFO-TAG 20 (Meso Scale Diagnostics, Cat #D20TF-6) was added to the plates for the assay of Table 7b, and plates were incubated at 37° C. with 300 rpm shaking for 30 minutes. Plates were washed 10 times with PBST, 150 μL/well of 1× Read Buffer T was added to the wells and analyzed on a SECTOR® Imager 6000 (Meso Scale Diagnostics) 15 min after buffer addition. The apparent KD is determined by fitting a sigmoidal curve to the electrochemiluminescence (ECL) response vs. log (soluble IL-4Rα concentration) using GraphPad Prism 9. Data is graphed with normalized ECL values.
Background: An ELISA detects its analyte on a solid surface through an enzyme-linked reagent.

Test [3] addresses T1, human IL-4Rα on cells (human PBMC B …). Description: cell-based or functional assay. The source holds these as a separate data set.
Test [4] has the same target. Description: cell-based or functional assay. This is another data set of the same source.
Test [5] has as its target T3, hexahistidine-tagged cynomolgus monkey IL-4Rα extracellular domain (cynomolgus monkey, UniProt P24394 26-231 (human entry)).
T3 construct: also called cynomolgus monkey IL-4Rα ECD; not shown: hexahistidine tag
T3 chain: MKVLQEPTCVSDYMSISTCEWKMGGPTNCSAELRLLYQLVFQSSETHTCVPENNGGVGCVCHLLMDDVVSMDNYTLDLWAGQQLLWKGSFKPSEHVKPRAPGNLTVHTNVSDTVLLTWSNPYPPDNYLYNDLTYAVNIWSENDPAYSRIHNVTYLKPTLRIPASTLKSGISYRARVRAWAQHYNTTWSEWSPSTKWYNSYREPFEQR
Briefly: competition MSD ELISA (solution equilibrium, 37 °C), apparent KD, mean of 3 experiments. The method, then:
as §1

Test [6] addresses T1, human IL-4Rα on cells (human PBMC B …). Description: cell-based or functional assay. This is another data set of the same source.

B1: anti-human IL-4Rα antibody Ab1 (antibody, human IgG4 S228P, kappa)
heavy: QVQLVESGGGLVQPGGSLRLSCVASGFTFSHSSMNWVRQAPGKGLEWVSYISRATGAVYYADSVKGRFTISRDNAKNSLYLQMNSLRDEDTAVYYCAREPVFDYWGQGTLVTVSSASTKGPCVFPLAPCSRSTSESTAALGCLVKDYFPEPVTVSWNSGALTSGVHTFPAVLQSSGLYSLSSVVTVPSSSLGTKTYTCNVDHKPSNTKVDKRVESKYGPPCPPCPAPEFLGGPSVFLFPPKPKDTLMISRTPEVTCVVVDVSQEDPEVKFNWYVDGVEVHNAKTKPREEQFNSTYRVVSVLTVLHQDWLNGKEYKCKVSNKGLPSSIEKTISKAKGQPREPQVYTLPPSREEMTKNQVSLTCLVKGFYPSDICVEWESNGQPENNYKTTPPVLDSDGSFFLYSRLTVDKSRWQQGNVFSCSVMHEALHNHYTQKSLSLSLG
light: DIQMTQSPSAMSASVGDRVTITCRASQDISNYLAWFQQKPGKVPTRLIYAASSLQSGVPSRFSGSGSGTEFTLTISSLQPEDFATYYCLQWSSYPRTFGQGTKVEIKRTVAAPSVFIFPPSDEQLKSGTASVVCLLNNFYPREAKVQWKVDNALQSGNSQESVTEQDSKDSTYSLSSTLTLSKADYEKHKVYACEVTHQGLSSPVTKSFNRGEC
notes: human kappa light chain; also called anti-human IL-4Rα Ab1; unconjugated Ab1
As to B1, the “Inhibition of IL-4 induced CD23 Expression on myeloid cells, IC50” value in test [1] turned out to be 8.27 nM. In test [2], the Kd was 0.0312 nM. Also, in test [3], the “Inhibition of IL-4 induced STAT6 phosphorylation, B cells, IC50” value amounted to 0.019 µg/mL and the “Inhibition of IL-4 induced STAT6 phosphorylation, CD4+ T cells, IC50” value worked out at 0.017 µg/mL. In addition, the “Inhibition of IL-13 induced STAT6 phosphorylation in B cells, IC50” value in test [4] worked out at 0.03 µg/mL.

B2: anti-human IL-4Rα Ab1 GC conjugate of Example 1b (n=4) (antibody, human IgG4 S228P, kappa)
heavy: B1 heavy
light: B1 light
modifications: glucocorticoid receptor agonist payload-linker (GC-L, Preparation 8) conjugated to the engineered cysteines at the 124 and 378 position of the heavy chain (EU numbering); n is 4 (average DAR 4.17 by RP-HPLC, 3.85 by TOF MS)
For the molecule B2, in test [1], the “Inhibition of IL-4 induced CD23 Expression on myeloid cells, IC50” value turned out to be 10.8 nM. Moreover, the Kd in test [2] turned out to be 0.0247 nM. Further, the Kd in test [5] came out at 0.0458 nM. In addition, in test [3], the “Inhibition of IL-4 induced STAT6 phosphorylation, B cells, IC50” value was determined as 0.046 µg/mL and the “Inhibition of IL-4 induced STAT6 phosphorylation, CD4+ T cells, IC50” value was determined as 0.041 µg/mL. Further, in test [4], the “Inhibition of IL-13 induced STAT6 phosphorylation in B cells, IC50” value worked out at 0.064 µg/mL. Further, the “Inhibition of IL-4 induced B cell proliferation, IC50” value in test [6] came out at 1.41 nM.

Values taken from patent publication US20240100176A1 (Eli Lilly, published 2024).
